Experimental data published in the Human Domainome abundance scans (Beltran et al. 2025).
± gives the uncertainty stated by the source.

B1: Max-interacting protein 1, residues 70 to 120; numbered along this chain, P50539 (parent)
chain: STHNELEKNRRAHLRLCLERLKVLIPLGPDCTRHTTLGLLNKAKAHIKKLE

Variants of: B1
Test: abundance fitness (aPCA) (normalised: wild type 0, dead -1); higher = more abundant; growth selection in yeast, the domain comes from the species named
Conditions: Homo sapiens

Variant	abundance fitness
STHNELEKNRRAHLTLCLERLKVLIPLGPDCTRHTTLGLLNKAKAHIKKLE	-0.407 ± 0.13
STHNELEKNRRAHLRLCLLRLKVLIPLGPDCTRHTTLGLLNKAKAHIKKLE	-0.791 ± 0.11
STHNELEKNRRAHLRLCLVRLKVLIPLGPDCTRHTTLGLLNKAKAHIKKLE	-0.999 ± 0.11
STHNELEKNRRAHLRLCLNRLKVLIPLGPDCTRHTTLGLLNKAKAHIKKLE	0.202 ± 0.16
STHNELEKNRRAHLRLCLTRLKVLIPLGPDCTRHTTLGLLNKAKAHIKKLE	-0.532 ± 0.11
STHNELEKNRRAHLRLCLERLKVLIHLGPDCTRHTTLGLLNKAKAHIKKLE	0.017 ± 0.17
STHNELEKNRRAHLRLCLERLKVLIWLGPDCTRHTTLGLLNKAKAHIKKLE	-0.525 ± 0.11
STHNELEKNRRAHLRLCLERLKVLISLGPDCTRHTTLGLLNKAKAHIKKLE	0.193 ± 0.1
STHNELEKNRRAHLRLCCERLKVLIPLGPDCTRHTTLGLLNKAKAHIKKLE	-0.61 ± 0.13
STHNELEKNRRAHLRLCMERLKVLIPLGPDCTRHTTLGLLNKAKAHIKKLE	-0.405 ± 0.12
STHNELEKNRRAHLRLCAERLKVLIPLGPDCTRHTTLGLLNKAKAHIKKLE	-0.275 ± 0.089
STHNELEKNRRAHLRLCLERLKVLIPLGPDCTRWTTLGLLNKAKAHIKKLE	0.017 ± 0.091
STHNELEKNRRAHLRLCLERLKVLIPLGPDCTRRTTLGLLNKAKAHIKKLE	0.264 ± 0.074
STHNELEKNRRAHLRLCLERLRVLIPLGPDCTRHTTLGLLNKAKAHIKKLE	-0.121 ± 0.095
STHNELEKNRRAHLRLCLERLCVLIPLGPDCTRHTTLGLLNKAKAHIKKLE	-0.871 ± 0.18
STHNELEKNRRAHLRLCLERLEVLIPLGPDCTRHTTLGLLNKAKAHIKKLE	-0.885 ± 0.15
STHNELEKNRRAHLRLCLERLKVLIPLGPDCTRHTTLGLLNKAKDHIKKLE	-0.617 ± 0.22
STHNELEKNRRAHLRLCLERLKVLWPLGPDCTRHTTLGLLNKAKAHIKKLE	0.319 ± 0.097
STHNELEKNRRAHLRLCLERLKVLTPLGPDCTRHTTLGLLNKAKAHIKKLE	-0.562 ± 0.13
STHNELEKNRRAHLRLCLERLKVLHPLGPDCTRHTTLGLLNKAKAHIKKLE	-0.744 ± 0.23
STHNELEKNRRAHLRLCLERLKVLIPLGPDCTRHTTLGLLNKAKAHIKKLG	0.355 ± 0.15
STHNELEKNRRAHLRLCLERLKVLIPLGPDCTRHTTLGLLNKAKAHIKKLW	-0.059 ± 0.18
STHNELEKNRRAHLRLCLERLKVLIPLGPDCTRHTTLGLLNKAKAHIKKLL	-0.182 ± 0.25
STHNELEKNRRAHLRLCLERLKVLIPLGPDCTRHTTLGLLIKAKAHIKKLE	-0.631 ± 0.33
STHNELEKNRRAHLRLCLERLKVLIPLGPDCTRHTTLGLLTKAKAHIKKLE	-0.555 ± 0.2
STHNELEKNRRAHLRLCLERLKVLIPLGPDCTRHTTLGLLRKAKAHIKKLE	-0.044 ± 0.1

Variant	abundance fitness
STHGELEKNRRAHLRLCLERLKVLIPLGPDCTRHTTLGLLNKAKAHIKKLE	-0.223 ± 0.1
STHMELEKNRRAHLRLCLERLKVLIPLGPDCTRHTTLGLLNKAKAHIKKLE	-0.289 ± 0.12
STHNELEKNRRAHLRLCLERDKVLIPLGPDCTRHTTLGLLNKAKAHIKKLE	-1.23 ± 0.28
STHNELEKNRRAHLRLCLERIKVLIPLGPDCTRHTTLGLLNKAKAHIKKLE	-0.144 ± 0.17
STHNELEKNRRAHLRLCLERLKVLIPLGPDCTRHTTLGPLNKAKAHIKKLE	-0.597 ± 0.15
STHNELEKNRRAHLRLCLERLKVLIPLGPDCTRHTTLGELNKAKAHIKKLE	-0.597 ± 0.13
STHNELEKNRRAHLRLCLERLKVLIPLGPDCTRHTTLGVLNKAKAHIKKLE	-0.257 ± 0.09
STHNELEKNRRAHLRLCLERLKVLIPLGPDCERHTTLGLLNKAKAHIKKLE	-0.354 ± 0.096
STHNELEKNRRAHLRLCLERLKVLIPLGPDCNRHTTLGLLNKAKAHIKKLE	-0.389 ± 0.17
STHNELEKNRRAHLRLCLERLKVLIPLGPDCTRHTTLGLLNQAKAHIKKLE	-0.44 ± 0.13
STHNELEKNRRAHLRLCLERLKVLIPLGPDCTRHTTLGLLNPAKAHIKKLE	-0.808 ± 0.16
STHNELEKNRRAHLRLCLERLKVLIPLGPDCTRHTTLGLLNMAKAHIKKLE	-0.452 ± 0.16
STHNELEKNRRAHLRLCLERLKVLIPLGPDCTRHTTLGLLNAAKAHIKKLE	-0.319 ± 0.095
STHNELEKNRRAHLRLCLERLKVLIPLGPDCTRHTTLGLLNCAKAHIKKLE	-0.185 ± 0.1
STHNELEKNRRAHLRLCLERLKVLIPLGPDPTRHTTLGLLNKAKAHIKKLE	0.053 ± 0.13
STHNELEKNRRAHLRLCLERLKVLIPLGPDRTRHTTLGLLNKAKAHIKKLE	0.203 ± 0.08
STHNELCKNRRAHLRLCLERLKVLIPLGPDCTRHTTLGLLNKAKAHIKKLE	-0.267 ± 0.11
STHNELHKNRRAHLRLCLERLKVLIPLGPDCTRHTTLGLLNKAKAHIKKLE	-0.3 ± 0.16
STHNELEKNRRAHLRLCLERLKVLIPLGPDCTRHTTLGLLNKAKAHIKKVE	-0.616 ± 0.1
STHNELEKNRRAHLRLCLERLKVLIPLGPDCTRHTTLGLLNKAKAHIKKPE	-0.353 ± 0.2
STHNELEKNRRAFLRLCLERLKVLIPLGPDCTRHTTLGLLNKAKAHIKKLE	-0.076 ± 0.13
STHNELEKNRRAHLRLCLERLKVLIPLGGDCTRHTTLGLLNKAKAHIKKLE	-0.119 ± 0.092
STHNELEKNRRAHLRLCLERLKVLIPLGKDCTRHTTLGLLNKAKAHIKKLE	0.44 ± 0.12
RTHNELEKNRRAHLRLCLERLKVLIPLGPDCTRHTTLGLLNKAKAHIKKLE	-0.573 ± 0.26
STHNELEKNRRAHLRWCLERLKVLIPLGPDCTRHTTLGLLNKAKAHIKKLE	0.07 ± 0.1
